± gives the half width of the 95% confidence interval.
What was measured:
[1] = folding stability dG unfold from trypsin proteolysis; higher = more stable
Procedure, shortened: (§1)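 Unfolding free energy was derived, per protease or combined, by relating Bayesian-fitted K50 values from sequencing counts to a sequence-predicted unfolded-state K50 and a shared folded-state K50. The underlying digests exposed cysteine-free mini-proteins under 80 residues, in a PA-tagged cDNA display construct, to trypsin and chymotrypsin at 11 threefold-diluted concentrations and to a no-protease condition. A filter kept only designs with AlphaFold2 dimer inter-PAE above 15.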

[2] = folding stability dG unfold from chymotrypsin proteolysis; higher = more stable
Procedure, shortened: as §1

[3] = folding stability dG unfold (combined trypsin and chymotrypsin); higher = more stable
Procedure, shortened: as §1

Sequence	folding stability dG unfold [1] [kcal/mol]	folding stability dG unfold [2] [kcal/mol]	folding stability dG unfold [3] [kcal/mol]
SAGGSAGGSAGGSPKVYVELRFKLPNNLYVEIRYEIDPEKPGYVDWEVRLFDENGNPLGSAGGSAGGSAGGS [r4_297_TrMRF]	3.61 ± 0.23	4.74 ± 0.096	4.56 ± 0.16
SAGGSAGGSAGGKKPVKITEIHRNPGPNWIRIRIPGNGRPIPIPVPPGKKLTLEDALDFSAGGSAGGSAGGS [r10_844_TrROS]	-0.648 ± 0.38	-0.0211 ± 0.29	-0.304 ± 0.19
SAMTYTLTPAGGKTITVTLNPDGSITITSTSTSSSLPLSPDAKITSVTFDAATGTITITLNSKPITIPASAG [r14_276_JUSTAS]	1.9 ± 0.057	1.74 ± 0.17	1.92 ± 0.15
SAGGSAGGGMPPVVTTEISVEEVRPDERDENGNRYFLVTTTLTFPDSTVTTERWLEEEELEELLSAGGSAGG [r6_724_JUSTAS]	1.3 ± 0.033	0.912 ± 0.16	1.09 ± 0.15
SAGGSAGGSAKEFVAKVITPDGKPFTIPFGGETEEEAIEKLKEAIKKAFPEYKGVKIELEEKSAGGSAGGSA [r18_434_TrMRF]	0.873 ± 0.057	0.626 ± 0.27	0.791 ± 0.2
SAGGSAGKNKPFPLPILIEAHPDDPEEAAERLKAELEALFPGPIKVEIVEVDPEKGIITAIVTVDGSAGGSA [r15_1024_TrMRF]	0.985 ± 0.038	1.58 ± 0.073	1.31 ± 0.096
SGTRTVTVTGAVLSRLPDGTLVTDPGEAPVTVPVPPPKPRIEVPPELREKLREAAEKLGLELTEEDIETASA [r9_487_TrMRF]	-0.208 ± 0.36	-0.896 ± 0.9	-0.365 ± 0.26
SAGGMGISTEPEISFERKTLPDGTYVLEIHTTTTTTDSSGVVTTTTSTKTVKFSPDNPEKIKELIEALSAGG [r13_412_JUSTAS]	2.67 ± 0.098	2.51 ± 0.058	2.54 ± 0.14
SAGGMVVTEEGDKTYITVRVPAPPGLPPEAVAAEIRERYGLSDLEVLEVEALPDGTLVVRLRDSTPASAGGS [r16_234_JUSTAS]	2.55 ± 0.074	2.554 ± 0.021	2.55 ± 0.044
SAGGSAGGSAGGKKVKVLTLTIELEVKDSNGKKYKVKATVTLIYDEKTKKLYLNISIEPSAGGSAGGSAGGS [r10_795_TrROS_Hall]	3.95 ± 0.39	5.05 ± 0.19	4.85 ± 0.31
SALKGLKITEIKEVTNEDGSKSLVVRVDGYLLVFDLDTKKLTLVPLPPVTVTVTVYEKKADPNKPEYKKKSA [r9_1065_TrROS_Hall]	1.71 ± 0.042	3.15 ± 0.056	2.77 ± 0.16
SAGGSFLVPTSSMEEAEEIKNAVLAGEPVTVTPPDGVPVTVKAKSVEVDPETGKVRIIDPSGEKLALSAGGS [r16_254_JUSTAS]	0.201 ± 0.14	0.414 ± 0.095	0.379 ± 0.1
SAGGSAGGSAGGSLEAIRKAIEEAQKNGHTVPISVRHPNGKDFTFEIEIQVVKPPPDEKSAGGSAGGSAGGS [r10_573_TrROS]	1.28 ± 0.043	1.47 ± 0.066	1.46 ± 0.13
SAGGSAGGSAGGGNLALPPRYRITVRIEKDGSTSTVEFDSEEELAALDDPGLTVTEVREESAGGSAGGSAGG [r7_793_JUSTAS]	-0.743 ± 0.35	1.18 ± 0.036	0.745 ± 0.11
SSMSIEIKEVEEDPVGSEAKPRVVREKVTLEGTEVELTVTVTEAPSGETTVTTTLTFPGSGKTFSFTFDTSA [r9_241_JUSTAS]	1.9 ± 0.052	3.05 ± 0.044	2.62 ± 0.058
SAMTVVIPPNLTALTEDGRPIHPDQVVEVYEAEAFPELGRVVARVKVFDPVSGEETEERLVLFFPDGAESAG [r14_258_TrMRF]	1.26 ± 0.033	1.66 ± 0.021	1.53 ± 0.036

Sequence	folding stability dG unfold [1] [kcal/mol]	folding stability dG unfold [2] [kcal/mol]	folding stability dG unfold [3] [kcal/mol]
SAGGSAGGSAGGSLAFEGSFRFRKLKLTFKRKLTRTRPDGEPEEFEEELELEVEVVLPVSAGGSAGGSAGGS [r4_418_TrMRF]	3.77 ± 0.09	4.84 ± 0.15	4.21 ± 0.4
SAGKIEVKKNYVVIEIKVEGKELKLVIKVKTKEEQEKALELVKKLEEELKKEGLEVEVKVEVFKEGEEVSAG [r5_823_TrROS_Hall]	2.2 ± 0.15	3 ± 0.16	2.8 ± 0.23
SAGGVDKGPPDAEVSREVLPRKLPNGKELLEEIRTRVLASGSLLVDRTIRDPNSDKVESEELVDPGASAGGS [r8_129_JUSTAS]	0.021 ± 0.31	-0.0363 ± 0.16	-0.0613 ± 0.32
SAGGSAGGSMRTITYEFPPGTTKEEVIEKVKELAKKEGLPIEKIESITEDPETGTYTVTVVVKSAGGSAGGS [r12_131_JUSTAS]	4.2 ± 0.42	4.65 ± 0.14	4.59 ± 0.34
SAGGDPLVLEFDGVTVVYDPKTKTLVVFAPSSEVERLVKALGPKFEPLEIFELEDGSVVMLVRIKPESAGGS [r8_415_TrMRF]	3.53 ± 0.12	4.53 ± 0.1	4.35 ± 0.13
SAGGSAGGSAWHIRIHPGNEPQWIPIDDLRDKGLPPEELAEELQKKFGFKVEIVDPGWIRVKSAGGSAGGSA [r18_7_TrROS]	-0.284 ± 0.26	-0.364 ± 0.42	-0.348 ± 0.24
SAGGSAGGGKRLEITRTYFIPPDDIDKLKDLPGIREVTPHRMPDGYYMITVTIRIPISADQLKASAGGSAGG [r6_155_TrROS]	1.7 ± 0.051	2.1 ± 0.084	1.94 ± 0.2
SAGGSGTESKEYPDSKVTVTPVPLPLGDGAPVLRVTTVPKLPNGEPVTTVTLVDPDSDVVVTEETLSAGGSA [r2_484_JUSTAS]	-0.0208 ± 0.028	0.925 ± 0.012	0.598 ± 0.044
TTKTYTTPVIKKMTVTFDKTEGNEATLTITATLPDGTPVTLPFPLTLETGKLDPAVVEAAIKAAVATAIAQS [r1_124_JUSTAS]	0.892 ± 0.07	1.37 ± 0.12	1.23 ± 0.2
SAGGMKIKIEVIDPDGKKRVIEIDASTPEEIKAALDALPPGAVVRIVVPSPELREALKEAGVDEVVELSAGG [r13_476_TrROS_Hall]	4.37 ± 0.23	2.77 ± 0.069	3.87 ± 0.2
SAGGSAGGSAGPFKIEMTFIFKKDNEYYIAKIEIEISPDGYPKMKIEIKKVDINELENYFSAGGSAGGSAGG [r11_690_TrMRF]	2.52 ± 0.15	4.39 ± 0.14	4.04 ± 0.4
SAGGIEVDPEHKHVHIHIPNGNIPELLDLIEDAPGDHVSIHFYNPGNGKPRRFTMPRKEARKFLEQFSAGGS [r16_797_TrROS]	1.13 ± 0.033	0.834 ± 0.086	1.04 ± 0.044
SAGGSAGGSMKIPEDETYEEKLPDGRKVTYTWEPESGLLKTTTTDPNNDTPTTSTYKVPPSSLLSAGGSAGG [r6_407_JUSTAS]	0.0466 ± 0.2	0.49 ± 0.31	0.262 ± 0.25
SAGGSGPLLERALEEIREALAKAKEGEEVEIEVKVTVTGPDGRTREFTFRIRFVVKDGKIVKVEIESAGGSA [r2_173_TrROS_Hall]	3.74 ± 0.22	4.94 ± 0.085	4.66 ± 0.14
SAGSAEELKEKIREELRERLAKELGYPNIEIKKVEVLKYDPETGTITVKVELKLPDGKELTLTITVPVKSAG [r5_20_JUSTAS]	4.27 ± 0.34	3.63 ± 0.29	3.9 ± 0.41

Source: the supplement of paper PMC12764529
